{
  "source": "patent US20180171001A1",
  "experiment_in_all_cases": "cell-based or functional assay",
  "key": {"[1]": {"target": "Env of HIV-1 strain 3016.v5.c45 (HIV-1)"}, "[2]": {"target": "Env of HIV-1 strain 3415.v1.c1 (HIV-1)"}, "[3]": {"target": "Env of HIV-1 strain 251-18 (HIV-1)"}, "[4]": {"target": "Env of HIV-1 strain ZM109F.PB4 (HIV-1)"}, "[5]": {"target": "Env of HIV-1 strain 250-4 (HIV-1)"}, "[6]": {"target": "Env of HIV-1 strain Du172.17 (HIV-1)"}, "[7]": {"target": "Env of HIV-1 strain H086.8 (HIV-1)"}, "[8]": {"target": "Env of HIV-1 strain 231965.c1 (HIV-1)"}, "[9]": {"target": "Env of HIV-1 strain REJO4541.67 (HIV-1)"}, "[10]": {"target": "Env of HIV-1 strain YU2.DG (HIV-1)"}, "[11]": {"target": "Env of HIV-1 strain ZM53M.PB12 (HIV-1)"}, "[12]": {"target": "Env of HIV-1 strain 3365.v2.c20 (HIV-1)"}, "Tier 2 15 virus panel": {"target": "Tier 2 15 virus panel"}, "[13]": {"target": "Env of HIV-1 strain R1166.c1 (HIV-1)"}, "Env of MuLV": {"target": "Env of MuLV"}, "[14]": {"target": "Env of HIV-1 strain PVO.4 (HIV-1)"}, "[15]": {"target": "Env of HIV-1 strain X1254_c3 (HIV-1)"}},
  "data": [
    {"binder": "8ANC195 IgG (antibody, V domains shown) VH: QIHLVQSGTEVKKPGSSVTVSCKAYGVNTFGLYAVNWVRQAPGQSLEYIGQIWRWKSSASHHFRGRVLISAVDLTGSSPPISSLEIKNLTSDDTAVYFCTTTSTYDKWSGLHHDGVMAFSSWGQGTLISVSA VL: DIQMTQSPSTLSASIGDTVRISCRASQSITGNWVAWYQQRPGKAPRLLIYRGAALLGGVPSRFSGSAAGTDFTLTIGNLQAEDFGTFYCQQYDTYPGTFGQGTKVEV", "values": [
      {"measurement": "neutralization IC50", "setting": "[1]", "value": 0.195, "unit": "µg/mL"},
      {"measurement": "neutralization IC50", "setting": "[2]", "value": 2.4, "unit": "µg/mL"},
      {"measurement": "neutralization IC50", "setting": "[3]", "value": 0.284, "unit": "µg/mL"},
      {"measurement": "neutralization IC50", "setting": "[4]", "value": "> 30", "unit": "µg/mL"},
      {"measurement": "neutralization IC50", "setting": "[5]", "value": "> 50", "unit": "µg/mL"},
      {"measurement": "neutralization IC50", "setting": "[6]", "value": 10.8, "unit": "µg/mL"},
      {"measurement": "neutralization IC50", "setting": "[7]", "value": 0.095, "unit": "µg/mL"},
      {"measurement": "neutralization IC50", "setting": "[8]", "value": 0.514, "unit": "µg/mL"},
      {"measurement": "neutralization IC50", "setting": "[9]", "value": 0.08, "unit": "µg/mL"},
      {"measurement": "neutralization IC50", "setting": "[10]", "value": 0.79, "unit": "µg/mL"},
      {"measurement": "neutralization IC50", "setting": "[11]", "value": 9.63, "unit": "µg/mL"},
      {"measurement": "neutralization IC50", "setting": "[12]", "value": "> 30", "unit": "µg/mL"},
      {"measurement": "mean neutralization IC50", "setting": "Tier 2 15 virus panel", "value": 2.3, "unit": "µg/mL"},
      {"measurement": "neutralization IC50", "setting": "[13]", "value": 0.986, "unit": "µg/mL"},
      {"measurement": "neutralization IC50", "setting": "Env of MuLV", "value": "> 23", "unit": "µg/mL"},
      {"measurement": "neutralization IC50", "setting": "[14]", "value": 0.52, "unit": "µg/mL"},
      {"measurement": "neutralization IC50", "setting": "[15]", "value": 1.52, "unit": "µg/mL"}
    ]}
  ]
}
